In article PMC4144951, “Dissecting the Functional Role of the N-Terminal Domain of the Human Small Heat Shock Protein HSPB6” (PLoS ONE, 2014):

T1: human HSPB6, wild type, full length (human), O14558
T1 chain: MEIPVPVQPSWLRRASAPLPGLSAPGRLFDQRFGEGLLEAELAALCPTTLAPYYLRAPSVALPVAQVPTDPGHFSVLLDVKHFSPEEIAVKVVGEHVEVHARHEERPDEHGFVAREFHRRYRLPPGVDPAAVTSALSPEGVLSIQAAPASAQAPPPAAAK


Legend:
HSPB6 Δ31–40 (human) = HSPB6 Δ31–40 (human) (UniProt O14558); test: SEC-coupled SAXS; inline HPLC, Shodex KW404-4F, 20°C, 20 mM HEPES, 150 mM NaCl, pH 7.4, 2.5 mM DTT; 75 µl of 5 mg/ml HSPB6 or equivalent molarity loaded (ΔN11: 111 µl of 3.37 mg/ml); mass at the peak maximum from I0 and Porod volume; number of subunits of the oligomer
HSPB6 Δ31–35 (human) [1] = target: HSPB6 Δ31–35 (human) (UniProt O14558); test: SEC; data not shown; three loaded concentrations, no larger oligomeric species seen; size of the oligomer (dimer)
HSPB6 Δ31–35 (human) [2] = target: HSPB6 Δ31–35 (human) (UniProt O14558); test: SEC-coupled SAXS; inline HPLC, Shodex KW404-4F, 20°C, 20 mM HEPES, 150 mM NaCl, pH 7.4, 2.5 mM DTT; 75 µl of 5 mg/ml HSPB6 or equivalent molarity loaded (ΔN11: 111 µl of 3.37 mg/ml); mass at the peak maximum from I0 and Porod volume; number of subunits of the oligomer
[3] = target: the molecule itself; test: as above
[4] = target: the molecule itself; test: SEC; data not shown; three loaded concentrations, no larger oligomeric species seen; size of the oligomer (dimer)
[5] = target: the molecule itself; test: SEC; 100 µl at 2.5, 5 and 10 mg/ml on Superdex 200 10/300 GL, 4°C, 25 mM HEPES pH 7.5, 150 mM NaCl, 2.5 mM DTT; apparent MW from column calibration; the shift of the peak with loaded concentration is read as self-association of the dimers with each other (dimer to higher species)
[6] = target: T1, human HSPB6, wild type, full length …; test: SEC; data not shown; three loaded concentrations, no larger oligomeric species seen; size of the oligomer (dimer); details: remark: other sources report otherwise
[7] = target: T1, human HSPB6, wild type, full length …; test: SEC-coupled SAXS; inline HPLC, Shodex KW404-4F, 20°C, 20 mM HEPES, 150 mM NaCl, pH 7.4, 2.5 mM DTT; 75 µl of 5 mg/ml HSPB6 or equivalent molarity loaded (ΔN11: 111 µl of 3.37 mg/ml); mass at the peak maximum from I0 and Porod volume; number of subunits of the oligomer; details: remark: other sources report otherwise
[8] = target: T1, human HSPB6, wild type, full length …; test: SEC; 100 µl at 2.5, 5 and 10 mg/ml on Superdex 200 10/300 GL, 4°C, 25 mM HEPES pH 7.5, 150 mM NaCl, 2.5 mM DTT; apparent MW from column calibration; the shift of the peak with loaded concentration is read as self-association of the dimers with each other (dimer to higher species); details: remark: other sources report otherwise
[9] = target: the molecule itself; test: as above; remark: listed apart in the source
[10] = target: human recombinant insulin (human, UniProt P01308 25-54; P01308 90-110); test: cell-based or functional assay
Sequence of human recombinant insulin (P01308 25-54, chain 1 of 2): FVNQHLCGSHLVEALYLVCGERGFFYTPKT
Sequence of human recombinant insulin (P01308 90-110, chain 2 of 2): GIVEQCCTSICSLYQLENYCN

Molecule	stoichiometry N [3] [subunits]	concentration dependence of apparent MW [5]	also measured
HSPB6 Δ31–40 (from UniProt O14558 1-160) (natural protein)	–	–	stoichiometry N (HSPB6 Δ31–40 (human)): 2 subunits
HSPB6 Δ31–35 (from UniProt O14558 1-160) (natural protein)	–	–	stoichiometry N (HSPB6 Δ31–35 (human) [1]): 2; stoichiometry N (HSPB6 Δ31–35 (human) [2]): 2.2 subunits
HSPB6 ΔN11 (domain or fragment, human, UniProt O14558 12-160, looked up, HSPB6, human, without its first 11 residues (ΔN10 begins with the sole tryptophan; ΔN11 removes it too); Prone to aggregate; could not be concentrated above about 4-5 mg/ml; also called ΔN11-construct; source: E. coli NiCo21 (DE3) with pRARE2, purified (subtractive IMAC, anion exchange, SEC); not shown: SUMO, N-terminal, cleaved) LRRASAPLPGLSAPGRLFDQRFGEGLLEAELAALCPTTLAPYYLRAPSVALPVAQVPTDPGHFSVLLDVKHFSPEEIAVKVVGEHVEVHARHEERPDEHGFVAREFHRRYRLPPGVDPAAVTSALSPEGVLSIQAAPASAQAPPPAAAK	2.5	–	–
HSPB6 Δ36–40 (natural protein, human, UniProt O14558 1-160, looked up, HSPB6, human, full-length protein with residues 36-40 deleted; source: E. coli NiCo21 (DE3) with pRARE2, purified (subtractive IMAC, anion exchange, SEC); not shown: SUMO, N-terminal, cleaved) MEIPVPVQPSWLRRASAPLPGLSAPGRLFDQRFGEELAALCPTTLAPYYLRAPSVALPVAQVPTDPGHFSVLLDVKHFSPEEIAVKVVGEHVEVHARHEERPDEHGFVAREFHRRYRLPPGVDPAAVTSALSPEGVLSIQAAPASAQAPPPAAAK	–	1.8 kDa/(mg/ml)	stoichiometry N [4]: 2
human HSPB6, wild type, full length, O14558 1-160 (natural protein) MEIPVPVQPSWLRRASAPLPGLSAPGRLFDQRFGEGLLEAELAALCPTTLAPYYLRAPSVALPVAQVPTDPGHFSVLLDVKHFSPEEIAVKVVGEHVEVHARHEERPDEHGFVAREFHRRYRLPPGVDPAAVTSALSPEGVLSIQAAPASAQAPPPAAAK	–	–	stoichiometry N [6]: 2; stoichiometry N [7]: 2.2 subunits; concentration dependence of apparent MW [8]: 1.51 kDa/(mg/ml)
HSPB6 Q31L (natural protein, human, UniProt O14558 1-160, looked up, HSPB6, human, full-length protein with the point mutation Q31L; source: E. coli NiCo21 (DE3) with pRARE2, purified (subtractive IMAC, anion exchange, SEC); not shown: SUMO, N-terminal, cleaved) MEIPVPVQPSWLRRASAPLPGLSAPGRLFDLRFGEGLLEAELAALCPTTLAPYYLRAPSVALPVAQVPTDPGHFSVLLDVKHFSPEEIAVKVVGEHVEVHARHEERPDEHGFVAREFHRRYRLPPGVDPAAVTSALSPEGVLSIQAAPASAQAPPPAAAK	4.3	1.87 kDa/(mg/ml)	–
HSPB6 F33A (natural protein, human, UniProt O14558 1-160, looked up, HSPB6, human, full-length protein with the point mutation F33A; source: E. coli NiCo21 (DE3) with pRARE2, purified (subtractive IMAC, anion exchange, SEC); not shown: SUMO, N-terminal, cleaved) MEIPVPVQPSWLRRASAPLPGLSAPGRLFDQRAGEGLLEAELAALCPTTLAPYYLRAPSVALPVAQVPTDPGHFSVLLDVKHFSPEEIAVKVVGEHVEVHARHEERPDEHGFVAREFHRRYRLPPGVDPAAVTSALSPEGVLSIQAAPASAQAPPPAAAK	2.3	–	–
HSPB6 F33Y (natural protein, human, UniProt O14558 1-160, looked up, HSPB6, human, full-length protein with the point mutation F33Y; source: E. coli NiCo21 (DE3) with pRARE2, purified (subtractive IMAC, anion exchange, SEC); not shown: SUMO, N-terminal, cleaved) MEIPVPVQPSWLRRASAPLPGLSAPGRLFDQRYGEGLLEAELAALCPTTLAPYYLRAPSVALPVAQVPTDPGHFSVLLDVKHFSPEEIAVKVVGEHVEVHARHEERPDEHGFVAREFHRRYRLPPGVDPAAVTSALSPEGVLSIQAAPASAQAPPPAAAK	1.9	–	–
HSPB6 Q31A (natural protein, human, UniProt O14558 1-160, looked up, HSPB6, human, full-length protein with the point mutation Q31A; Mixture of dimers and what appear to be tetramers; source: E. coli NiCo21 (DE3) with pRARE2, purified (subtractive IMAC, anion exchange, SEC); not shown: SUMO, N-terminal, cleaved) MEIPVPVQPSWLRRASAPLPGLSAPGRLFDARFGEGLLEAELAALCPTTLAPYYLRAPSVALPVAQVPTDPGHFSVLLDVKHFSPEEIAVKVVGEHVEVHARHEERPDEHGFVAREFHRRYRLPPGVDPAAVTSALSPEGVLSIQAAPASAQAPPPAAAK	4.2	1.1 kDa/(mg/ml)	stoichiometry N [9]: ~4
HSPB6 Δ51–60 (natural protein, human, UniProt O14558 1-160, looked up, HSPB6, human, full-length protein with residues 51-60 deleted; source: E. coli NiCo21 (DE3) with pRARE2, purified (subtractive IMAC, anion exchange, SEC); not shown: SUMO, N-terminal, cleaved) MEIPVPVQPSWLRRASAPLPGLSAPGRLFDQRFGEGLLEAELAALCPTTLALPVAQVPTDPGHFSVLLDVKHFSPEEIAVKVVGEHVEVHARHEERPDEHGFVAREFHRRYRLPPGVDPAAVTSALSPEGVLSIQAAPASAQAPPPAAAK	1.9	0.31 kDa/(mg/ml)	percentage protection against DTT-induced aggregation of insulin (A340 after 90 min, 37°C), insulin:sHSP 1:0.2 to 1:0.05 [10]: ~50 % decrease
HSPB6 Δ61–70 (natural protein, human, UniProt O14558 1-160, looked up, HSPB6, human, full-length protein with residues 61-70 deleted; By SAXS closer to a tetramer than to a dimer; source: E. coli NiCo21 (DE3) with pRARE2, purified (subtractive IMAC, anion exchange, SEC); not shown: SUMO, N-terminal, cleaved) MEIPVPVQPSWLRRASAPLPGLSAPGRLFDQRFGEGLLEAELAALCPTTLAPYYLRAPSVPGHFSVLLDVKHFSPEEIAVKVVGEHVEVHARHEERPDEHGFVAREFHRRYRLPPGVDPAAVTSALSPEGVLSIQAAPASAQAPPPAAAK	3.5	3.4 kDa/(mg/ml)	–
HSPB6 Δ11–20 (natural protein, human, UniProt O14558 1-160, looked up, HSPB6, human, full-length protein with residues 11-20 deleted; also called ΔN11–20; source: E. coli NiCo21 (DE3) with pRARE2, purified (subtractive IMAC, anion exchange, SEC); not shown: SUMO, N-terminal, cleaved) MEIPVPVQPSGLSAPGRLFDQRFGEGLLEAELAALCPTTLAPYYLRAPSVALPVAQVPTDPGHFSVLLDVKHFSPEEIAVKVVGEHVEVHARHEERPDEHGFVAREFHRRYRLPPGVDPAAVTSALSPEGVLSIQAAPASAQAPPPAAAK	1.8	0.81 kDa/(mg/ml)	percentage protection against DTT-induced aggregation of insulin (A340 after 90 min, 37°C), insulin:sHSP 1:0.2 to 1:0.05 [10]: ~50 % decrease
HSPB6 Δ41–50 (natural protein, human, UniProt O14558 1-160, looked up, HSPB6, human, full-length protein with residues 41-50 deleted; source: E. coli NiCo21 (DE3) with pRARE2, purified (subtractive IMAC, anion exchange, SEC); not shown: SUMO, N-terminal, cleaved) MEIPVPVQPSWLRRASAPLPGLSAPGRLFDQRFGEGLLEAAPYYLRAPSVALPVAQVPTDPGHFSVLLDVKHFSPEEIAVKVVGEHVEVHARHEERPDEHGFVAREFHRRYRLPPGVDPAAVTSALSPEGVLSIQAAPASAQAPPPAAAK	2.3	1.92 kDa/(mg/ml)	percentage protection against DTT-induced aggregation of insulin (A340 after 90 min, 37°C), insulin:sHSP 1:0.2 to 1:0.05 [10]: ~50 % decrease
HSPB6 Δ21–30 (natural protein, human, UniProt O14558 1-160, looked up, HSPB6, human, full-length protein with residues 21-30 deleted; source: E. coli NiCo21 (DE3) with pRARE2, purified (subtractive IMAC, anion exchange, SEC); not shown: SUMO, N-terminal, cleaved) MEIPVPVQPSWLRRASAPLPQRFGEGLLEAELAALCPTTLAPYYLRAPSVALPVAQVPTDPGHFSVLLDVKHFSPEEIAVKVVGEHVEVHARHEERPDEHGFVAREFHRRYRLPPGVDPAAVTSALSPEGVLSIQAAPASAQAPPPAAAK	2.2	1.29 kDa/(mg/ml)	percentage protection against DTT-induced aggregation of insulin (A340 after 90 min, 37°C), insulin:sHSP 1:0.2 to 1:0.05 [10]: ~50 % decrease
